Results: patent US6664090B1, “Carboxylesterase nucleic acid molecules, proteins and uses thereof” (Heska Corporation, priority 1996, dated 2003)

Experiments:
[1] = juvenile hormone esterase (JHE) activity assay, hydrolysis of 3H-juvenile hormone to juvenile hormone acid; format: biochemical; conditions: purified recombinant protein from S. frugiperda:pVL-nfE91600 supernatant, size exclusion fractions
Description: Unlabeled juvenile hormone (JH; available from ICN Biomedicals, Inc., Aurora, Ohio) was diluted in hexane to concentration of about 0.025 M. Labeled 10-^3H-juvenile hormone (^3H-JH; available from Dupont-NEN) was diluted in hexane to concentration of about 80,000 cpm/μl. A JH substrate mixture was prepared by mixing about 20 μl of unlabeled JH with about 80 μl of ^3H-JH (about 5 μCi) in a 4 ml screw cap vial. The substrate mixture was then covered with nitrogen (i.e., “blanketed”) and the solvent contained in the mixture was evaporated by heating the mixture at 35° C. When just dry, about 1 ml of absolute anhydrous ethanol (final concentration 5×10^−4 M, or 6400 cpm/μl) was added to the vial. The substrate mixture was then stored at −20° C.
About 5 equivalents of each tissue (about 5 μl of protein) was added into the bottom of a small glass autosampler vial. About 95 μl of Tris-buffered saline (TBS) was added to each vial to bring the final volume in each vial to about 100 μl. Two control samples were also prepared by adding 100 μl TBS to two separate vials. […]
To measure labeled juvenile hormone acid, about 250 μl isooctane was added to each vial. […] The amount of ^3H-juvenile hormone acid contained in each vial was determined using a Beckman LS-1801 liquid scintillation counter (available from Beckman, Fullerton, Calif.).

[2] = general carboxylesterase (CE) activity assay, hydrolysis of α-napthyl acetate, Fast Blue, 590 nm; format: biochemical; conditions: purified recombinant protein from S. frugiperda:pVL-nfE91600 supernatant, size exclusion fractions
Description: Tissue samples and soluble extracts were prepared as described above in Example 1, except not labelled, from unfed (UF) and bovine blood-fed 1st instar flea larvae, bovine blood-fed 3rd instar flea larvae, bovine blood-fed prepupal flea larvae, unfed whole adult fleas, cat blood-fed adult (ACF) whole fleas, cat blood-fed adult fleas that have had their heads and midguts removed (referred to herein as fed adult partial fleas), unfed adult flea midguts and cat blood-fed adult flea midguts. About 5 tissue equivalents of each tissue were assayed for general CE activity using the following method. Tissue samples of about 5 μl were added to separate wells of flat-bottomed microtiter plate (available from Becton Dickinson, Lincoln Park, N.J.). A control well was prepared by adding about 5 μl of Tris buffer to an empty well of the plate. About 95 μl of 25 mM Tris-HCl (pH 8.0) was then added to each sample to increase the volume in each well to about 100 μl. About 100 μl of 0.25 mM α-napthyl acetate (available from Sigma, St. Louis, Mo.) dissolved in 25 mM Tris-HCl (pH 8.0) was then added to each well. […]
The microtiter plate was then analyzed using a Cambridge Technology, Inc. (Watertown, Pa.) model 7500 Microplate Reader set to 590 nm. The absorbance value for the control sample was subtracted from absorbance values of experimental samples, such that the background value was zero.

B1: PfE9528: full-length flea esterase protein of about 528 amino acids, SEQ ID NO:37, encoded by nfE92007 (protein, listed as Ctenocephalides felis)
chain: MADLQVTLLQGTLKGKEQISEKGNVFHSYSGIPYAKPPVGDLRFKPPQPAEPWSGVLDASKEGNSCRSVHFIKKIKVGAEDCLYLNVYVPKTSEKSLLPVMVWIHGGGFFMGSGNSDMYGPEYLMDYGIVLVTFNYRLGVLGFLNLGIEEAPGNVGLMDQVEALKWVKNNIASFGGDPNNVTIFGESAGGASVHYLMLSDLSKGLFHKAISQSGSAFNPWALQHDNNKENAFRLCKLLGHPVDNETEALKILRQAPIDDLIDNRIKPKDKGQLIIDYPFLPTIEKRYQNFEPFLDQSPLSKMQSGNFTKVPFICGYNSAEGILGLMDFKDDPNIFEKFEADFERFVPVDLNLTLRSKESKKLAEEMRKFYYQDEPVSSDNKEKFVSVISDTWFLRGIKNTARYIIEHSSEPLYLYVYSFDDFGFLKKLVLDPNIEGAAHGDELGYLFKMSFTEFPKDLPSAVVNRERLLQLWTNFAKTGNPTPEINDVITTKWDKATEEKSDHMDIDNTLRMIPDPDAKRLRFWNKFL
[1]
  juvenile hormone esterase activity: juvenile hormone esterase activity
[2]
  carboxylesterase activity: carboxylesterase activity
